Assay results reported in article PMC3834829, “A signature motif mediating selective interactions of BCL11A with the NR2E/F subfamily of orphan nuclear receptors” (Nucleic Acids Research, 2013).

B1: AAD-COUP-TFII-LBD-(144–414) [not stated] / LexA-COUP-TFII-LBD-(144–414) [not stated] (parent)
chain 1: MRREAVQRGRMPPTQPTHGQFALTNGDPLNCHSYLSGYISLLLRAEPYPTSRFGSQCMQPNNIMGIENICELAARMLFSAVEWARNIPFFPDLQITDQVALLRLTWSELFVLNAAQCSMPLHVAPLLAAAGLHASPMSADRVVAFMDHIRIFQEQVEKLKALHVDSAEYSCLKAIVLFTSDACGLSDVAHVESLQEKSQCALEEYVRSQYPNQPTRFGKLLLRLPSLRTVSSSVIEQLFFVRLVGKTPIETLIRDMLLSGSSFNWPYMAIQ
chain 2: B1 chain 1

Variants of: B1
Assay: yeast two-hybrid
Conditions: with LexA-COUP-TFII-LBD-(144–414);; read off a plot
With chain 1 MRREAVQRGRMPPTQPTHGQFALTNGDPLNCHSYLSGYISLLLRAEPYPTSRFGSQCMQPNNIMGIENICELAARMLASAVEWARNIPFFPDLQITDQVALLRLTWSELFVLNAAQCSMPLHVAPLLAAAGLHASPMSADRVVAFMDHIRIFQEQVEKLKALHVDSAEYSCLKAIVLFTSDACGLSDVAHVESLQEKSQCALEEYVRSQYPNQPTRFGKLLLRLPSLRTVSSSVIEQLFFVRLVGKTPIETLIRDMLLSGSSFNWPYMAIQ [chain 1 F78A] the response was 410 nmol/mg/min. Work on chain 1 MRREAVQRGRMPPTQPTHGQFALTNGDPLNCHSYLSGYISLLLRAEPYPTSRFGSQCMQPNNIMGIENICELAARMLFSAVEWARNIPFFPDLQATDQVALLRLTWSELFVLNAAQCSMPLHVAPLLAAAGLHASPMSADRVVAFMDHIRIFQEQVEKLKALHVDSAEYSCLKAIVLFTSDACGLSDVAHVESLQEKSQCALEEYVRSQYPNQPTRFGKLLLRLPSLRTVSSSVIEQLFFVRLVGKTPIETLIRDMLLSGSSFNWPYMAIQ [chain 1 I95A] yielded a response of 500 nmol/mg/min. Work on chain 1 MRREAVQRGRMPPTQPTHGQFALTNGDPLNCHSYLSGYISLLLRAEPYPTSRFGSQCMQPNNIMGIENICELAARMLFSAVEWAANIPFFPDLQITDQVALLRLTWSELFVLNAAQCSMPLHVAPLLAAAGLHASPMSADRVVAFMDHIRIFQEQVEKLKALHVDSAEYSCLKAIVLFTSDACGLSDVAHVESLQEKSQCALEEYVRSQYPNQPTRFGKLLLRLPSLRTVSSSVIEQLFFVRLVGKTPIETLIRDMLLSGSSFNWPYMAIQ [chain 1 R85A] yielded a response of 390 nmol/mg/min. Variant chain 1 MRREAVQRGRMPPTQPTHGQFALTNGDPLNCHSYLSGYISLLLRAEPYPTSRFGSQCMQPNNIMGIENICELAARMLFSAVEWARNIPFFPDLQITDQVALLALTWSELFVLNAAQCSMPLHVAPLLAAAGLHASPMSADRVVAFMDHIRIFQEQVEKLKALHVDSAEYSCLKAIVLFTSDACGLSDVAHVESLQEKSQCALEEYVRSQYPNQPTRFGKLLLRLPSLRTVSSSVIEQLFFVRLVGKTPIETLIRDMLLSGSSFNWPYMAIQ [chain 1 R103A] has a response of 470 nmol/mg/min. Variant chain 1 MRREAVQRGRMPPTQPTHGQFALTNGDPLNCHSYLSGYISLLLRAEPYPTSRFGSQCMQPNNIMGIENICELAARMLFSAVEWARNIPFFPDLQITDQAALLRLTWSELFVLNAAQCSMPLHVAPLLAAAGLHASPMSADRVVAFMDHIRIFQEQVEKLKALHVDSAEYSCLKAIVLFTSDACGLSDVAHVESLQEKSQCALEEYVRSQYPNQPTRFGKLLLRLPSLRTVSSSVIEQLFFVRLVGKTPIETLIRDMLLSGSSFNWPYMAIQ [chain 1 V99A] has a response of 460 nmol/mg/min.
